Measurements reported in patent US20180237475A1 (BIONIZ, published 2018).

Biological target: T1, human γc-subunit (common γ subunit, CD132) (human, UniProt P31785 23-369)
T1 sequence (looked up): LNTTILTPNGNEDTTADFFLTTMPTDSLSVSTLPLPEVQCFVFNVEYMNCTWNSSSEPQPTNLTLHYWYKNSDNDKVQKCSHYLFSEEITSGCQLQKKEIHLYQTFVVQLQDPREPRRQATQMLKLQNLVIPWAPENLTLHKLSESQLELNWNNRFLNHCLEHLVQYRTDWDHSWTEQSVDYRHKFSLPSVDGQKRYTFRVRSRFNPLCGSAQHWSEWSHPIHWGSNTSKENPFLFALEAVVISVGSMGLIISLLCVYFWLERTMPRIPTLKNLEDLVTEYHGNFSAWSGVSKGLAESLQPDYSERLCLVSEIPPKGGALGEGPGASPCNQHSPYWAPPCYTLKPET
Experiment: cell-based or functional assay

IC50 on IL-2/IL-15-induced (0.1 nM each) proliferation of ex vivo human T-lymphocytes: 150 nM
Binder: IKEFLQRFIHIVQSIINTS [BNZ132-1]
